Experimental data from patent US9314499.

Molecular target: tissue plasminogen activator (human) (UniProt P00750)
Experiment: cell-based or functional assay

Sequence of UniProt P00750 (P00750 36-562 limits assumed): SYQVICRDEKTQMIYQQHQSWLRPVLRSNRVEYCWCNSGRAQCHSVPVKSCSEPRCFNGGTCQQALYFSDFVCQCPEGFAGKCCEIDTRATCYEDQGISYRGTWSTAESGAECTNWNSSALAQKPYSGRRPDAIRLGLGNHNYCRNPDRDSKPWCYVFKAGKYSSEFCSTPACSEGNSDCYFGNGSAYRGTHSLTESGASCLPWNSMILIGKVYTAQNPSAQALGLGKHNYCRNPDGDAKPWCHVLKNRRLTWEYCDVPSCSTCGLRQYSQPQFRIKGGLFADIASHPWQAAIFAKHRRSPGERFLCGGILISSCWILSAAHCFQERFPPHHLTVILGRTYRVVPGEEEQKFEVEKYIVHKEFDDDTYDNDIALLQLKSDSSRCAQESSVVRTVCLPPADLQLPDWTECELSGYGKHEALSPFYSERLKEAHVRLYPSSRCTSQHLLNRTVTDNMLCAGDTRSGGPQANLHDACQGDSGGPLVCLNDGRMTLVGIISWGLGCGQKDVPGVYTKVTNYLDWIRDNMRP

Substance: Histidine-tagged recombinant human Annexin A2 (from UniProt Q3ZCQ2 1-193)
- in vitro plasmin-generating capability of tPA (plasmin activity assay): 4 fold
